# The supplement of paper PMC9112550, “Optimization of the antimicrobial peptide Bac7 by deep mutational scanning” (BMC Biology, 2022)
# System: Escherichia coli TOP10
# Experiment: shrunken log2 fold change of peptide-encoding DNA abundance (4.5 h post-induction vs induction); higher = less antimicrobial activity (less host growth inhibition)
# Details: time post-induction: 4.5 h; library: site-saturation at positions 5, 18, 19, 20
# 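Further: peptides expressed intracellularly from a pBAD plasmid library in pooled LB shake-flask culture, induced with 0.3% L-arabinose, DNA abundance read by NGS, three biological replicates, DESeq2 with apeglm shrinkage.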
row,Sequence,shrunken log2 fold change
1,RRIRFRPPRLPRPRPRPECRPRP,-0.0408
2,RRIRSRPPRLPRPRPRPNPFPRP,-0.236
3,RRIRGRPPRLPRPRPRPRKQPRP,0.875
4,RRIRVRPPRLPRPRPRPDVEPRP,0.372
5,RRIRERPPRLPRPRPRPIAEPRP,0.255
6,RRIRNRPPRLPRPRPRPMKKPRP,0.00302
7,RRIRMRPPRLPRPRPRPWCVPRP,0.0904
8,RRIRHRPPRLPRPRPRPRLWPRP,0.63
9,RRIRNRPPRLPRPRPRPAPLPRP,0.196
10,RRIRWRPPRLPRPRPRPNAHPRP,0.0415
11,RRIRYRPPRLPRPRPRPTWAPRP,-0.0132
12,RRIRMRPPRLPRPRPRPNLIPRP,-0.0317
13,RRIRRRPPRLPRPRPRPAGHPRP,0.187
14,RRIRLRPPRLPRPRPRPLSLPRP,-0.145
15,RRIRCRPPRLPRPRPRPDGKPRP,-0.0306
16,RRIRHRPPRLPRPRPRPFNRPRP,0.00911
17,RRIRDRPPRLPRPRPRPYMRPRP,-0.0888
18,RRIRERPPRLPRPRPRPWCVPRP,-0.94
19,RRIRQRPPRLPRPRPRPSVQPRP,-0.0622
20,RRIRVRPPRLPRPRPRPCGRPRP,0.168
21,RRIRGRPPRLPRPRPRPHYRPRP,0.231
22,RRIRKRPPRLPRPRPRPQAEPRP,0.0754
23,RRIRTRPPRLPRPRPRPWPKPRP,0.218
24,RRIRWRPPRLPRPRPRPHCKPRP,-0.233
25,RRIRERPPRLPRPRPRPVQDPRP,-0.0228

row,Sequence,shrunken log2 fold change
1,RRIRHRPPRLPRPRPRPTENPRP,-0.418
2,RRIRNRPPRLPRPRPRPVIFPRP,-0.565
3,RRIRHRPPRLPRPRPRPPANPRP,0.478
4,RRIRFRPPRLPRPRPRPCELPRP,0.00618
5,RRIRPRPPRLPRPRPRPVKMPRP,0.137
6,RRIRPRPPRLPRPRPRPTFKPRP,0.0985
7,RRIRKRPPRLPRPRPRPFCEPRP,-0.0765
8,RRIRSRPPRLPRPRPRPNDQPRP,-0.102
9,RRIRSRPPRLPRPRPRPPVMPRP,0.0439
10,RRIRCRPPRLPRPRPRPWVEPRP,-0.689
11,RRIRSRPPRLPRPRPRPALMPRP,0.323
12,RRIRERPPRLPRPRPRPRGDPRP,0.0639
13,RRIRPRPPRLPRPRPRPWEMPRP,-0.157
14,RRIRHRPPRLPRPRPRPSGFPRP,0.112
15,RRIRCRPPRLPRPRPRPENIPRP,-1.32
16,RRIRKRPPRLPRPRPRPHIDPRP,0.0232
17,RRIRVRPPRLPRPRPRPWSWPRP,0.15
18,RRIRWRPPRLPRPRPRPWDGPRP,0.00386
19,RRIRSRPPRLPRPRPRPWPPPRP,0.51
20,RRIRTRPPRLPRPRPRPAGGPRP,0.304
21,RRIRQRPPRLPRPRPRPEMYPRP,-0.173
22,RRIRGRPPRLPRPRPRPYKPPRP,-0.571
23,RRIRRRPPRLPRPRPRPIWDPRP,0.604
24,RRIRDRPPRLPRPRPRPYQVPRP,-0.183
25,RRIRVRPPRLPRPRPRPRSYPRP,-0.0987

row,Sequence,shrunken log2 fold change
1,RRIRFRPPRLPRPRPRPPPMPRP,1.17
2,RRIRRRPPRLPRPRPRPGLSPRP,-0.0549
3,RRIRERPPRLPRPRPRPHDNPRP,-0.227
4,RRIRFRPPRLPRPRPRPWREPRP,-0.149
5,RRIRERPPRLPRPRPRPGAFPRP,-0.0461
6,RRIRSRPPRLPRPRPRPKTPPRP,0.405
7,RRIRFRPPRLPRPRPRPKQCPRP,-0.0712
8,RRIRWRPPRLPRPRPRPYKTPRP,-0.0554
9,RRIRGRPPRLPRPRPRPTKMPRP,0.521
10,RRIRFRPPRLPRPRPRPIYAPRP,-0.143
11,RRIRDRPPRLPRPRPRPAATPRP,1.9
12,RRIRQRPPRLPRPRPRPLAHPRP,-0.0319
13,RRIRCRPPRLPRPRPRPTRMPRP,0.0511
14,RRIRRRPPRLPRPRPRPQRWPRP,-0.0703
15,RRIRERPPRLPRPRPRPISWPRP,-0.246
16,RRIRDRPPRLPRPRPRPHFPPRP,-0.0339
17,RRIRSRPPRLPRPRPRPKPWPRP,0.463
18,RRIRRRPPRLPRPRPRPLLWPRP,0.421
19,RRIRGRPPRLPRPRPRPQTDPRP,0.381
20,RRIRRRPPRLPRPRPRPECVPRP,0.419
21,RRIRFRPPRLPRPRPRPAVCPRP,0.925
22,RRIRNRPPRLPRPRPRPKPTPRP,0.133
23,RRIRGRPPRLPRPRPRPGISPRP,0.0483
24,RRIRPRPPRLPRPRPRPHGAPRP,0.641
25,RRIRWRPPRLPRPRPRPWQRPRP,0.551
